Assay results: the Human Domainome abundance scans (Beltran et al. 2025)

B1: Ankyrin-2, residues 3571 to 3650; numbered along this chain, Q01484 (parent)
chain: ERLAYIADHLGFSWTELARELDFTEEQIHQIRIENPNSLQDQSHALLKYWLERDGKHATDTNLVECLTKINRMDIVHLME

Variants of: B1
Test: abundance fitness (aPCA) (normalised: wild type 0, dead -1); higher = more abundant; growth selection in yeast, the domain comes from the species named
Details: Homo sapiens

Abundance fitness, by site and new letter:
E52: R -0.045; Y -0.393; H -0.09; A 0.037; K 0.036; I -0.039; W -0.045; P -0.378; T 0.006; C -0.132; S -0.057; Q 0.088; M -0.083; V 0.006; F -0.034; L 0.012; G -0.146; D -0.178
K48: C 0.054; D -0.062; N 0.028; M -0.2; Q -0.097; F -0.053; H -0.015; S -0.094; R 0.01; L 0.02; P -0.848; T 0.04; I -0.164; E -0.027; V -0.076; Y -0.093; A -0.063; W -0.171
E34: R 0.018; Y -0.148; I -0.042; N -0.048; D -0.129; G -0.058; C -0.413; A -0.048; P -0.678; T -0.049; L -0.054; F -0.25; S -0.018; W -0.022; H -0.048; Q 0.085; V -0.021; K -0.045
P36: Y -0.221; H -0.202; F -0.08; M -0.017; T -0.052; C -0.123; W -0.074; D -0.031; S -0.117; E -0.044; N 0.253; I -0.805; Q -0.123; G -0.045; R -0.076; L -0.081; V -0.14; K -0.125
N37: G -0.028; L -0.067; W -0.091; Q -0.069; P -0.249; H -0.021; F -0.003; T -0.093; I -0.01; M 0.099; A 0.043; S -0.031; K -0.074; C -0.064; D -0.015; Y -0.171; R -0.068
I31: V -0.057; M -0.177; N -0.242; R -1.04; W -0.336; L -0.06; Q -0.743; Y -0.42; T -0.157; H -0.707; P -1.19; S -0.772
R32: G -0.05; P -0.293; H 0.034; I -0.339; Q 0.081; M -0.065; C -0.074; Y -0.384; K 0.177; F -0.088; D -0.073; L -0.034; N -0.206; T -0.127; A -0.096; E 0.058; S -0.059; W -0.25
L51: H -0.034; I -0.015; P -0.272; Y 0.031; N -0.123; V -0.087; R -0.072; A -0.165; E -0.111; D -0.058; C -0.236; T 0.017; G -0.154; Q 0.104; W -0.106; F 0.037; S -0.107
N35: C -0.053; D -0.296; I -0.087; T -0.071; K -0.042; R -0.033; E -0.043; M -0.03; Q 0.066; Y -0.07; F -0.091; V -0.084; H -0.118; A -0.066; L -0.128; W -0.049; S -0.093
Y49: V 0.068; R -0.129; S -0.001; A 0.016; N -0.056; P -0.513; F 0.02; W -0.117; G 0.042; D -0.031; C 0.037; M 0.059; I -0.009; K -0.052; L 0.017
Q40: E 0.051; W -0.065; R -0.07; G -0.146; I -0.124; S -0.069; C -0.16; A -0.104; P -0.045; D 0.117; L -0.171; T -0.033
D41: A -0.01; I 0.004; Q -0.024; S -0.005; P -0.243; G 0.006; L -0.038; C -0.109; N -0.02; M -0.019; V -0.065; W -0.2; F -0.168; E -0.077; R -0.058; K -0.034; Y -0.213; T -0.013
A45: H -0.197; R -0.002; D 0.097; G -0.231; L -0.002; C -0.189; V 0.101
S43: W -0.638; A -0.281; P -0.32; Y -0.508; V -0.25; M -1.13; L -0.216; R -0.701; G -0.093
L39: F -0.013; C -0.017; Q -0.102; K -0.087; A 0.031; G -0.108; I 0.071; D -0.031; T -0.134; H -0.155; Y 0.076; W -0.045; P -0.016; S -0.025; R -0.109; E -0.027; M -0.042; V -0.043
Q42: P -0.768; A -0.068; S 0.073; I -0.33; G -0.323; C 0.007; W -0.481; T -0.538; R -0.12; V -0.204; H -0.807
W50: S -0.081; L 0.012; E -0.316; C -0.053; R -0.205; T -0.05; Q 0.003; D -0.598; Y -0.14; M 0.007; F -0.086; N -0.041; V -0.017; K 0.063; H -0.132; G -0.28; A 0.003; P -0.664
H44: G -0.099; V 0.085; W -0.152; R -0.226; Y -0.21; N 0.051; Q -0.062; D -0.935; A 0.028; L -0.008; T -0.269; S 0.016; P -0.992
L46: W 0.141; T -0.127; C 0.184; P -0.885; A 0.143; Y -0.336; V -0.075; G -0.574
L47: V -0.034; P -1.28; F 0.046; K -0.412; E -0.673; I -0.061; W -0.238; Y -0.148; G -0.409; S -0.462; H -0.592; T -0.026; M 0.123; C -0.163; D -0.935; Q -0.626; N -0.582; A -0.191; R -0.541
S38: W -0.358; P -0.832; Q -0.103; I -0.396; E -0.092; F -0.155; T -0.039; R -0.096; N -0.065; L -0.086; M -0.059; H -0.14; Y -0.474; D -0.038; V -0.092
I33: K 0.058; F -0.019; V -0.04; N -0.223; D -0.105; Q 0.003; H -0.096; G -0.047; Y -0.027; A -0.034; M 0.011; T -0.022; E 0.039; R 0.011; P -0.912; L -0.087; W -0.073; C -0.002
